In patent US20130129746A1 (GlaxoSmithKline, published 2013):
Numbering of substitutions follows the chain as printed.

B1: DOM7h-11-12/DOM1m-21-23 fusion DMS number 5516 (other)
chain: EVQLLESGGGLVQPGGSLRLSCAASGFTFNRYSMGWLRQAPGKGLEWVSRIDSYGRGTYYEDPVKGRFSISRDNSKNTLYLQMNSLRAEDTAVYYCAKISQFGSNAFDYWGQGTQVTVSSASTSGPSDIQMTQSPSSLSASVGDRVTITCRASRPIGTMLSWYQQKPGKAPKLLILFGSRLQSGVPSRFSGSGSGTDFTLTISSLQPEDFATYYCAQAGTHPTTFGQGTKVEIKR
notes: also called DMS5516
B2: DOM7h-11-15/DOM1m-21-23 fusion DMS number 5517 (other)
chain: B1 chain with F177A, G178F
notes: also called DMS5517
B3: DOM7h-11 (other)
VL: DIQMTQSPSSLSASVGDRVTITCRASRPIGTTLSWYQQKPGKAPKLLIWFGSRLQSGVPSRFSGSGSGTDFTLTISSLQPEDFATYYCAQAGTHPTTFGQGTKVEIKR
B4: DOM7h-11-15 (other)
VL: B3 VL with T32M, W49L, F50A, G51F
B5: DOM7h-11-3 (other)
VL: B3 VL with W49L, F50W, G51N
B6: DOM7h-14 (other)
VL: DIQMTQSPSSLSASVGDRVTITCRASQWIGSQLSWYQQKPGKAPKLLIMWRSSLQSGVPSRFSGSGSGTDFTLTISSLQPEDFATYYCAQGAALPRTFGQGTKVEIKR
notes: Vk dAb (AlbudAb)
B7: DOM7h-14-10 (other)
VL: B6 VL with A92L, A93R, L94H, R96K
notes: Vk dAb (AlbudAb)
B8: DOM7h14-10/TVAAPSC fusion (NCE conjugate) (other)
chain: DIQMTQSPSSLSASVGDRVTITCRASQWIGSQLSWYQQKPGKAPKLLIMWRSSLQSGVPSRFSGSGSGTDFTLTISSLQPEDFATYYCAQGLRHPKTFGQGTKVEIKRTVAAPSC
modifications: C-terminal Cys of the TVAAPSC spacer conjugated by maleimide through a PEG 4 linker to the NCE (small molecule ADAMTS-4 inhibitor)
notes: AlbudAb-drug conjugate; also called DOM7h14-10 NCE-TVAAPSC
B9: DOM7h14-10/G4SC-NCE fusion (other)
chain: DIQMTQSPSSLSASVGDRVTITCRASQWIGSQLSWYQQKPGKAPKLLIMWRSSLQSGVPSRFSGSGSGTDFTLTISSLQPEDFATYYCAQGLRHPKTFGQGTKVEIKRGGGGSC
modifications: C-terminal Cys of the GGGGSC spacer conjugated by maleimide through a PEG 4 linker to the NCE (small molecule ADAMTS-4 inhibitor)
notes: AlbudAb-drug conjugate; also called DOM7h14-10 NCE-GGGGSC; DOM7h-14-10 GGGGSC
B10: Rat Serum Albumin (other, UniProt P02770 25-608, looked up)
chain: EAHKSEIAHRFKDLGEQHFKGLVLIAFSQYLQKCPYEEHIKLVQEVTDFAKTCVADENAENCDKSIHTLFGDKLCAIPKLRDNYGELADCCAKQEPERNECFLQHKDDNPNLPPFQRPEAEAMCTSFQENPTSFLGHYLHEVARRHPYFYAPELLYYAEKYNEVLTQCCTESDKAACLTPKLDAVKEKALVAAVRQRMKCSSMQRFGERAFKAWAVARMSQRFPNAEFAEITKLATDVTKINKECCHGDLLECADDRAELAKYMCENQATISSKLQACCDKPVLQKSQCLAEIEHDNIPADLPSIAADFVEDKEVCKNYAEAKDVFLGTFLYEYSRRHPDYSVSLLLRLAKKYEATLEKCCAEGDPPACYGTVLAEFQPLVEEPKNLVKTNCELYEKLGEYGFQNAVLVRYTQKAPQVSTPTLVEAARNLGRVGTKCCTLPEAQRLPCVEDYLSAILNRLCVLHEKTPVSEKVTKCCSGSLVERRPCFSALTVDETYVPKEFKAETFTFHSDICTLPDKEKQIKKQTALAELVKHKPKATEDQLKTVMGDFAQFVDKCCKAADKDNCFATEGPNLVARSKEALA
notes: mature; purified protein on CM5 chips for BIAcore; also called RSA; rat SA

Experiments:
Rat Serum Albumin [1] = molecular target: B10; experiment: BIAcore SPR, DOM1m-21-23 fusion against unfused AlbudAb
[2] = molecular target: T1, Cynomolgus monkey Serum Albumin (Cynomolgus monkey, UniProt A2V9Z4 25-608); experiment: Albumin KD column of the PK table (row marked historical data; differs from Table 6); historical data (*), not the Table 6 run
T1 construct: mature; purified protein on CM5 chips for BIAcore; also called CSA; cyno SA

mouse serum albumin [3] = molecular target: T2, mouse serum albumin (mouse, UniProt P07724 25-608); experiment: Albumin KD column of the PK table (repeats Table 6)
T2 construct: mature; purified protein on CM5 chips for BIAcore; also called MSA; mouse SA

Rat Serum Albumin [4] = molecular target: B10; experiment: as above
[5] = molecular target: T1, Cynomolgus monkey Serum Albumin; experiment: BIAcore SPR;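 for koff: purified dAbs run at 1 µM, 500 nM and 50 nM over human, cynomolgus, mouse and rat serum albumin in BIAcore binding measurements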
Method: (§1) Binding to HSA, CSA, MSA and RSA by BIAcore was confirmed using purified protein at 3 concentrations 1 μM, 500 nM and 50 nM.

mouse serum albumin [6] = molecular target: T2, mouse serum albumin; experiment: BIAcore SPR;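 for koff: purified dAbs run at 1 µM, 500 nM and 50 nM over human, cynomolgus, mouse and rat serum albumin in BIAcore binding measurements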
Method: as §1

Rat Serum Albumin [7] = molecular target: B10; experiment: BIAcore SPR;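 for koff: purified dAbs run at 1 µM, 500 nM and 50 nM over human, cynomolgus, mouse and rat serum albumin in BIAcore binding measurements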
Method: as §1

[8] = molecular target: T1, Cynomolgus monkey Serum Albumin; experiment: Albumin KD column of the PK table (repeats Table 6)
Human Serum Albumin [9] = molecular target: T3, Human Serum Albumin (human, UniProt P02768 25-609); experiment: BIAcore SPR;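 for koff: purified dAbs run at 1 µM, 500 nM and 50 nM over human, cynomolgus, mouse and rat serum albumin in BIAcore binding measurements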
T3 construct: mature; purified protein on CM5 chips for BIAcore; also called HSA; human SA
From the text: (§2) MSA antigen was obtained from Sigma (essentially fatty acid free, ˜99% (agarose gel electrophoresis), lyophilized powder Cat. No. A3559) and CSA was purified from Cynomolgus serum albumin using prometic blue resin (Amersham).

[10] = molecular target: T1, Cynomolgus monkey Serum Albumin; experiment: BIAcore SPR; remark: listed apart in the source
From the text: as §2

mouse serum albumin [11] = molecular target: T2, mouse serum albumin; experiment: BIAcore SPR; remark: listed apart in the source
From the text: as §2

Rat Serum Albumin [12] = molecular target: B10; experiment: BIAcore SPR; remark: listed apart in the source
From the text: as §2

Human Serum Albumin [13] = molecular target: T3, Human Serum Albumin; experiment: BIAcore SPR; remark: listed apart in the source
Method: as §1

Human Serum Albumin [14] = molecular target: T3, Human Serum Albumin; experiment: BIAcore SPR, second independent experiment;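 note: purified domain antibodies run as analytes at 50 nM, 500 nM and 1 µM over HSA, CSA, MSA and RSA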
Method: as §1

[15] = molecular target: T1, Cynomolgus monkey Serum Albumin; experiment: BIAcore SPR, second independent experiment;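 note: purified domain antibodies run as analytes at 50 nM, 500 nM and 1 µM over HSA, CSA, MSA and RSA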
Method: as §1

mouse serum albumin [16] = molecular target: T2, mouse serum albumin; experiment: BIAcore SPR, second independent experiment;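 note: purified domain antibodies run as analytes at 50 nM, 500 nM and 1 µM over HSA, CSA, MSA and RSA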
Method: as §1

Rat Serum Albumin [17] = molecular target: B10; experiment: BIAcore SPR, second independent experiment;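 note: purified domain antibodies run as analytes at 50 nM, 500 nM and 1 µM over HSA, CSA, MSA and RSA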
Method: as §1

Rat Serum Albumin [18] = molecular target: B10; experiment: BIAcore SPR, second independent experiment; second, independent SPR experiment (bracketed values)
Method: as §1

[19] = molecular target: T1, Cynomolgus monkey Serum Albumin; experiment: Albumin KD column of the PK table (repeats Table 6; row marked historical data)
Rat Serum Albumin [20] = molecular target: B10; experiment: Albumin KD column of the PK table (repeats Table 6; row marked historical data); Albumin KD column of PK Table 10; historical data
Rat Serum Albumin [21] = molecular target: B10; experiment: BIAcore SPR (Albumin KD column)
[22] = molecular target: T4, DOM7h-11-15/Exendin-4 fusion DMS number 7143; experiment: BIAcore SPR (Albumin KD column)
T4 construct: exendin-4, (G4S)3 linker, AlbudAb; also called DMS7143

[23] = molecular target: T5, DOM7h-14-19/Exendin-4 fusion DMS number 7141; experiment: BIAcore SPR (Albumin KD column)
T5 construct: exendin-4, (G4S)3 linker, AlbudAb; also called DMS7141

[24] = molecular target: T6, DOM7h-14/Exendin-4 fusion DMS number 7138; experiment: BIAcore SPR (Albumin KD column)
T6 construct: exendin-4, (G4S)3 linker, AlbudAb; also called DMS7138

[25] = molecular target: T7, DOM7h-14-10/Exendin-4 fusion DMS number 7139; experiment: BIAcore SPR (Albumin KD column)
T7 construct: exendin-4, (G4S)3 linker, AlbudAb; also called DMS7139

[26] = molecular target: T8, DOM7h-11/Exendin-4 fusion DMS number 7142; experiment: BIAcore SPR (Albumin KD column)
T8 construct: exendin-4, (G4S)3 linker, AlbudAb; also called DMS7142

[27] = molecular target: T9, DOM7h-14-18/Exendin-4 fusion DMS number 7140; experiment: BIAcore SPR (Albumin KD column)
T9 construct: exendin-4, (G4S)3 linker, AlbudAb; also called DMS7140

[28] = molecular target: T10, DOM7h-11-12/Exendin-4 fusion DMS number 7147; experiment: BIAcore SPR (Albumin KD column)
T10 construct: exendin-4, (G4S)3 linker, AlbudAb; also called DMS7147

T1 sequence (A2V9Z4 25-608): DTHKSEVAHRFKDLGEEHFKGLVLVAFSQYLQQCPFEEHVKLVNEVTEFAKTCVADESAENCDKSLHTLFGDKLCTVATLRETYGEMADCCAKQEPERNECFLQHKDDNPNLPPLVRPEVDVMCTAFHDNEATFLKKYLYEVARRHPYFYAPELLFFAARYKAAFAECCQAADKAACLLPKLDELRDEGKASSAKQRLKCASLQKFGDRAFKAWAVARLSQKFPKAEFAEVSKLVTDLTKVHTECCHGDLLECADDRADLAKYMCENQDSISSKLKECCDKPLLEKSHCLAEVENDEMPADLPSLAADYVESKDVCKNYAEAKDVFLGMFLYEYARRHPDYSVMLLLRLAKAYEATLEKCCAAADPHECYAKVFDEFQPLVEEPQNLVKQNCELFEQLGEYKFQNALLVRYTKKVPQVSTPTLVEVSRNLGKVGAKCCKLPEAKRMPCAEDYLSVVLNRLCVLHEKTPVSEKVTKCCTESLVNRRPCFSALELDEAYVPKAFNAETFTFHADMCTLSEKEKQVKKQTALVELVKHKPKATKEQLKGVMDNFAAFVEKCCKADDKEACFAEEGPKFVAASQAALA
T2 sequence (P07724 25-608): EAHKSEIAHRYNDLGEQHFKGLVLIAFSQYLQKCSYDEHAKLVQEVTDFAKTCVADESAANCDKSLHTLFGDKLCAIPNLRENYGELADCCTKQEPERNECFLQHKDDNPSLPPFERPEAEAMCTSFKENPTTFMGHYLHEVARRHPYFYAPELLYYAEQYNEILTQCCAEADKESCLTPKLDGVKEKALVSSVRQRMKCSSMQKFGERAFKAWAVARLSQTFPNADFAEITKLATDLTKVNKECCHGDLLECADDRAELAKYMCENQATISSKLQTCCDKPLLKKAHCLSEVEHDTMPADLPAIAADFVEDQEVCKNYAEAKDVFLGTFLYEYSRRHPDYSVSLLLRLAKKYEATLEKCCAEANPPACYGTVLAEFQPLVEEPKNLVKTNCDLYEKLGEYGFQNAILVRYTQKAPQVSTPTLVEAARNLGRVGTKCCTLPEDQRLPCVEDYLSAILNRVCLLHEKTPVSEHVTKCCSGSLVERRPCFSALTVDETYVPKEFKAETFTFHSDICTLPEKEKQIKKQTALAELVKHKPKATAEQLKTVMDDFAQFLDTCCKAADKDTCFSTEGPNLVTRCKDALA

Binder	Kd (Rat Serum Albumin [4])	Kd [5]	koff [5]	kon [5]	Kd (mouse serum albumin [6])	koff (mouse serum albumin [6])	Kd (Rat Serum Albumin [7])	koff (Rat Serum Albumin [7])	kon (Rat Serum Albumin [7])	Kd (Human Serum Albumin [13])	koff (Human Serum Albumin [13])	kon (Human Serum Albumin [13])	kon (mouse serum albumin [6])	further results
B1	–	–	–	–	–	–	–	–	–	–	–	–	–	fold decrease in affinity to RSA compared to the unfused AlbudAb (Rat Serum Albumin [1]): 2 fold
B2	–	–	–	–	–	–	–	–	–	–	–	–	–	fold decrease in affinity to RSA compared to the unfused AlbudAb (Rat Serum Albumin [1]): 2 fold
B3	2100 nM	1000 nM	0.682 s⁻¹	800000 M⁻¹ s⁻¹	5000 nM	0.9 s⁻¹	2100 nM	0.1 s⁻¹	48000 M⁻¹ s⁻¹	–	–	–	–	Kd [2]: 3300 nM; Kd (mouse serum albumin [3]): 5000 nM
B4	20 nM	3 nM	0.00557 s⁻¹	–	10 nM	0.0094 s⁻¹	20 nM	0.021 s⁻¹	1.1e+06 M⁻¹ s⁻¹	1 nM	0.00184 s⁻¹	2e+06 M⁻¹ s⁻¹	1.1e+06 M⁻¹ s⁻¹	Kd [8]: 3 nM; Kd (mouse serum albumin [3]): 10 nM; Kd (Human Serum Albumin [9]): 1.4 nM; Kd [10]: 5.3 nM; Kd (mouse serum albumin [11]): 10.3 nM; Kd (Rat Serum Albumin [12]): 21 nM
B5	–	670 nM	0.096 s⁻¹	290000 M⁻¹ s⁻¹	≥ 10000 nM	–	10000 nM	–	–	32 nM	0.016 s⁻¹	650000 M⁻¹ s⁻¹	–	Kd (Human Serum Albumin [14]): 130 nM; koff (Human Serum Albumin [14]): 0.0235 s⁻¹; kon (Human Serum Albumin [14]): 186000 M⁻¹ s⁻¹; Kd [15]: 200 nM; koff [15]: 0.15 s⁻¹; kon [15]: 726000 M⁻¹ s⁻¹; Kd (mouse serum albumin [16]): 36000 nM; koff (mouse serum albumin [16]): 0.612 s⁻¹; kon (mouse serum albumin [16]): 16700 M⁻¹ s⁻¹; Kd (Rat Serum Albumin [17]): 88000 nM; kon (Rat Serum Albumin [17]): 8110 M⁻¹ s⁻¹; koff (Rat Serum Albumin [18]): 0.718 s⁻¹
B6	–	66 nM	0.0965 s⁻¹	1.5e+06 M⁻¹ s⁻¹	12 nM	0.0482 s⁻¹	60 nM	0.209 s⁻¹	4e+06 M⁻¹ s⁻¹	33 nM	0.0417 s⁻¹	1.43e+06 M⁻¹ s⁻¹	4.1e+06 M⁻¹ s⁻¹	Kd [19]: 66 nM; Kd (Rat Serum Albumin [20]): 60 nM
B7	4 nM	9 nM	0.0115 s⁻¹	1.6e+06 M⁻¹ s⁻¹	30 nM	0.0341 s⁻¹	4 nM	0.00964 s⁻¹	4.57e+06 M⁻¹ s⁻¹	12 nM	0.0139 s⁻¹	1.5e+06 M⁻¹ s⁻¹	1.29e+06 M⁻¹ s⁻¹	Kd [8]: 9 nM
B8	–	–	–	–	–	–	–	–	–	–	–	–	–	Kd (Rat Serum Albumin [21]): 35 nM
B9	–	–	–	–	–	–	–	–	–	–	–	–	–	Kd (Rat Serum Albumin [21]): 62 nM
B10	–	–	–	–	–	–	–	–	–	–	–	–	–	Kd [22]: 130 nM; Kd [23]: 17000 nM; Kd [24]: 2400 nM; Kd [25]: 19 nM; Kd [26]: 24000 nM; Kd [27]: 16000 nM; Kd [28]: 1400 nM
